PMC7946940

Tests used:
[1] = target: Rab5a(1–212)-Q79L-C19S-C63S (human) (UniProt P20339)
[2] = target: Rab1a(1–204)-Q70L-C26S-C126S (human) (UniProt P62820)
Chain of Rab1a(1–204)-Q70L-C26S-C126S (human) (P62820 1-204 C26S/Q70L/C126S): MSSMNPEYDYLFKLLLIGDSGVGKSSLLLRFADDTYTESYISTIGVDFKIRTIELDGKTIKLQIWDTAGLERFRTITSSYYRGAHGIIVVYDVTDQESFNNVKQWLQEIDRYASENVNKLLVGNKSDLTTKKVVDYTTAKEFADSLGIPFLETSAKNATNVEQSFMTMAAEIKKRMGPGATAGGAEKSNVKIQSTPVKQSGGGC

Chain of human VPS34 complex I (VPS34/VPS15/Beclin 1/ATG14L) (Q8NEB9 whole entry): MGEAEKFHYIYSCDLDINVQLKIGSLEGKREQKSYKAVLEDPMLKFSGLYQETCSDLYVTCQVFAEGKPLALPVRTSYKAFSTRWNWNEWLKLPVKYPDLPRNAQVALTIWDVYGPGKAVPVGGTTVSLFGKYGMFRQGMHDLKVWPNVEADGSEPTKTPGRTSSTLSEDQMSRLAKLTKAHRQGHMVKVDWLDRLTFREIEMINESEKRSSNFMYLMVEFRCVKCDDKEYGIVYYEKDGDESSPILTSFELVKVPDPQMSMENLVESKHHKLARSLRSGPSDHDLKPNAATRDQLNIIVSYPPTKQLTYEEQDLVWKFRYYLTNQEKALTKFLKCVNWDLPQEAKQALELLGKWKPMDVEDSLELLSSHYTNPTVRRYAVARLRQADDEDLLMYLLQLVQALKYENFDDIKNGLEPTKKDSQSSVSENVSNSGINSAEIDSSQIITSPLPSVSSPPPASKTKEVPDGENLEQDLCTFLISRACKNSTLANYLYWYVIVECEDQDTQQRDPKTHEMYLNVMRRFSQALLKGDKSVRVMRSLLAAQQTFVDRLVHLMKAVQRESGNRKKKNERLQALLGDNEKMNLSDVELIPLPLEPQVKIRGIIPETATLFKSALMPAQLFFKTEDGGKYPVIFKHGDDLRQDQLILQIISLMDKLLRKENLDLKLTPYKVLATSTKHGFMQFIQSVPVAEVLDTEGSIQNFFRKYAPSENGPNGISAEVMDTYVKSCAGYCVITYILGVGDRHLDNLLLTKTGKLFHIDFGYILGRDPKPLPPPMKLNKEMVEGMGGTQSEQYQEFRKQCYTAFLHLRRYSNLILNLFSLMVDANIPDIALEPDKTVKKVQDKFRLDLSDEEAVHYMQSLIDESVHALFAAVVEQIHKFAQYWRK
Chain of human VPS34 complex I (VPS34/VPS15/Beclin 1/ATG14L) (Q99570 whole entry): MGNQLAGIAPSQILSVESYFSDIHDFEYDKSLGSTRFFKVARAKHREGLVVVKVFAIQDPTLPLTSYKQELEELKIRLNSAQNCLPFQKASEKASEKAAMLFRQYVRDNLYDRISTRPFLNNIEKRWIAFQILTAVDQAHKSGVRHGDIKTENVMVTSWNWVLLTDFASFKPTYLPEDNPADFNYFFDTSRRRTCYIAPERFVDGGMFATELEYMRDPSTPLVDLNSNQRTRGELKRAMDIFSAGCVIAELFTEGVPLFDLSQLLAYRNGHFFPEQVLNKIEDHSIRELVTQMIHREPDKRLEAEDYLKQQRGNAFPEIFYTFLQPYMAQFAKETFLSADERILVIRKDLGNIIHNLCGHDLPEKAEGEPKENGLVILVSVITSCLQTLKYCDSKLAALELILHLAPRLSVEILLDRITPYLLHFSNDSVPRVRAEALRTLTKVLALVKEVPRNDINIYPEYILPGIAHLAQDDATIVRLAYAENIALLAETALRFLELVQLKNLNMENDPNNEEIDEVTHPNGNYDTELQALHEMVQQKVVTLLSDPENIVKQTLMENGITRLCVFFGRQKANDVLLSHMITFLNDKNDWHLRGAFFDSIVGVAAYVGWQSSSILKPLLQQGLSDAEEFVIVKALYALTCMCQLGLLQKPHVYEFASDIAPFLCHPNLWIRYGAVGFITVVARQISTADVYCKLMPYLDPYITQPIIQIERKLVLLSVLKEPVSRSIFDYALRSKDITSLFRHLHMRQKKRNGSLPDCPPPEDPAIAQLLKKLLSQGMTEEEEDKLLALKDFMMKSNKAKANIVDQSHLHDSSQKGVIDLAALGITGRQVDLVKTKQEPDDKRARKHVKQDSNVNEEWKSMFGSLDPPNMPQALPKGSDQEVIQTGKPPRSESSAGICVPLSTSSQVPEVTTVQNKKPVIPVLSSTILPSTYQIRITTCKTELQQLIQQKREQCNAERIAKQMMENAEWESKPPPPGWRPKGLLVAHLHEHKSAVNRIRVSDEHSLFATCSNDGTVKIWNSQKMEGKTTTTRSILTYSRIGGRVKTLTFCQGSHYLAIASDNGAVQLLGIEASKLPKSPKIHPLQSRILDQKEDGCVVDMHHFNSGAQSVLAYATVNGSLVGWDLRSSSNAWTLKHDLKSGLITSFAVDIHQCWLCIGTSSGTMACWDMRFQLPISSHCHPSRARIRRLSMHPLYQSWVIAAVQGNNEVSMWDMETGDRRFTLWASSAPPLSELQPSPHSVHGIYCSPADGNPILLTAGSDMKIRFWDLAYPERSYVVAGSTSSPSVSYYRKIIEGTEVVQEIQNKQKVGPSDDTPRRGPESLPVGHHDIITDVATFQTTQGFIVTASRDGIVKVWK
Chain of human VPS34 complex I (VPS34/VPS15/Beclin 1/ATG14L) (Q14457 whole entry): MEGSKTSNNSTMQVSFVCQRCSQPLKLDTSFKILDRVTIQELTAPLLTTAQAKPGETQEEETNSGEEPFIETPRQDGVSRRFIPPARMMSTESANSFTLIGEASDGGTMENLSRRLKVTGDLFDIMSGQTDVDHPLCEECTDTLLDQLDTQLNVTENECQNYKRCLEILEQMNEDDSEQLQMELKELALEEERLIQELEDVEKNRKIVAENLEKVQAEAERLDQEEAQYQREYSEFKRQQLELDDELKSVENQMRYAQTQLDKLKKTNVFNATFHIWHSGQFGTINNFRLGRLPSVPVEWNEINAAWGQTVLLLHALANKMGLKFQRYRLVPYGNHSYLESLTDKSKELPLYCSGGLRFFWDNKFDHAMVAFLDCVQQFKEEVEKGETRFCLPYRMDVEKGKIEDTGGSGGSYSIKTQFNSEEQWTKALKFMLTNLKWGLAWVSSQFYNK
Chain of human VPS34 complex I (VPS34/VPS15/Beclin 1/ATG14L) (Q6ZNE5 whole entry): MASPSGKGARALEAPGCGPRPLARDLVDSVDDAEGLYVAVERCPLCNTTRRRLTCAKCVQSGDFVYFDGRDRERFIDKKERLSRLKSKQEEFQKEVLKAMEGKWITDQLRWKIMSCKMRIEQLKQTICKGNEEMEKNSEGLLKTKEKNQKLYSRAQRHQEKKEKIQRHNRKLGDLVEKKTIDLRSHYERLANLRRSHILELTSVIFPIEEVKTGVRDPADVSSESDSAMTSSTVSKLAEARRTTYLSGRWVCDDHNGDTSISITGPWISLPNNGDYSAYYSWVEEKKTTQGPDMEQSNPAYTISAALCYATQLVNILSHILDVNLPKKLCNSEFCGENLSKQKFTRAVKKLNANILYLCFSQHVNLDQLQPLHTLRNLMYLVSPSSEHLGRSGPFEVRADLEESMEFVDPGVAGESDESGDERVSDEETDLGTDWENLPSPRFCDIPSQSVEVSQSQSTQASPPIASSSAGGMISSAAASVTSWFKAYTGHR
Chain of Rab5a(1–212)-Q79L-C19S-C63S (human) (P20339 1-212 C19S/C63S/Q79L): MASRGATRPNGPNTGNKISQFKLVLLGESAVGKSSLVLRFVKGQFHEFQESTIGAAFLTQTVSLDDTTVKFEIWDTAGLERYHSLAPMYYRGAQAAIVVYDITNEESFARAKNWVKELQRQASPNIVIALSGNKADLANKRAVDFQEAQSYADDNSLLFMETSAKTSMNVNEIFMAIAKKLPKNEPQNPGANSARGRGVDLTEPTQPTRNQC

GUV-based lipid kinase activity, activation of complex II REIE > AAAA by Rab5a–GTP against wild-type complex II [1] [fold] | Substance | GUV-based lipid kinase activity of complex I, fold activation by Rab1a–GDP on the GUVs [2] [fold] | GUV-based lipid kinase activity of complex I, fold activation by Rab1a–GTP on the GUVs [2] [fold]
4 | complex II REIE > AAAA (VPS34 199-REIE-202 to alanine/VPS15/Beclin 1/UVRAG) (from UniProt Q8NEB9 1-887; Q99570 1-1358; Q14457 1-450; Q9P2Y5 1-699) |  | 
 | human VPS34 complex I (VPS34/VPS15/Beclin 1/ATG14L) (from UniProt Q8NEB9 1-887; Q99570 1-1358; Q14457 1-450; Q6ZNE5 1-492) | 3 | 11
